Our source for the stoichiometry N and Kd values is paper PMC3905854 (Nucleic Acids Research, 2013).

One assay concerns the target Hda (E. coli) (UniProt P69931). Nature of the assay: SEC. On the technique in general: In gel filtration, larger molecules generally elute earlier.
The next assay addresses T1, DnaA (wtDnaA) (Escherichia coli, UniProt P03004, H202Y).
T1 sequence (P03004 1-467 H202Y): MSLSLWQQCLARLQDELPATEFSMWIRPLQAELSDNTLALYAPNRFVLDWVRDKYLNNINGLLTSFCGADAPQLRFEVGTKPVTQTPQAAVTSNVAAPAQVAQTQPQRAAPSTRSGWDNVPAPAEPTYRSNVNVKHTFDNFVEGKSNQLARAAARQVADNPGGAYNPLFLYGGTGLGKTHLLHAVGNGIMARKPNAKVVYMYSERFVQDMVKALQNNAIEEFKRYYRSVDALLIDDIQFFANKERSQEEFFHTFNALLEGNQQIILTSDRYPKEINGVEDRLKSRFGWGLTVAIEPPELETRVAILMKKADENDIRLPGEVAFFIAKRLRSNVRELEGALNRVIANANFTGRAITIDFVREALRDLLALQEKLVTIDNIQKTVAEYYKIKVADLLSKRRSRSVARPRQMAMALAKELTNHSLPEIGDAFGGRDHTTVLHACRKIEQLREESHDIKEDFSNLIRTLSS
Nature of the assay: ATP binding assay.

In turn, “Hda (from UniProt P69931 1-233) (natural protein)” returned a stoichiometry N in the assay with Hda (E. coli) of 2. The compound `Nc1ncnc2c1ncn2[C@@H]1O[C@H](COP(=O)(O)OP(=O)(O)OP(=O)(O)O)[C@@H](O)[C@H]1O` [ATP] yielded a Kd on DnaA (wtDnaA) of 360 nM.

The term stoichiometry N denotes the number of molecules, sites or subunits per partner or assembly. The Kd is the concentration at which binding is half-saturated.
